Experimental data: patent publication US20240400693A1 (Chugai, published 2024)
Changes are numbered by the printed parent chain.

B1: DQN0344H0976/L0591//DQN0385H1255/L0605-F6.v2 (bispecific antibody)
heavy 1: QVQLVESGGGVVQPGGSLRLSCAASGFTFSSAYWMVWVRQAPGQGLEWMGAVYGGSDTTYYAKWTEGRFTISRDTSKNTLYLQMNSLRAEDTAVYYCAREPLNYYYYGELNLWGQGTLVTVSSASTKGPSVFPLAPSSKSTSGGTAALGCLVKDYFPEPVTVSWNSGALTSGVHTFPAVLKSSGLYSLSSVVTVPSSSLGTQTYICNVNHKPSNTKVDKRVEPKSCDKTHTCPPCPAPELRRGPSVFLFPPKPKDTLMISRTPEVTCVVVDVSHEDPEVKFNWYVDGVEVHNAKTKPREEQYNSTYRVVSVLTVLHQDWLNGKEYKCKVSNKALPAPIEKTISKAKGQPREPQVYTLPPSREEMTKNQVSLTCLVKGFYPSDIAVEWESNGQPENNYKTTPPVLDSDGSFFLYSKLTVDKSRWQEGNVFSCSVLHEALHAHYTREELSLSP
light 1: DIQMTQSPSSLSASVGDRVTITCQATEEIYSGLAWYQQKPGKAPKLLIYYVSTLYEGIPARFSGSGSGTDFTLTISSLEPEDFAVYYCQTYEDVSAVTFGQGTKVEIKRTVAAPSVFIFPPSDEQLKSGTAEVVCLLNNFYPREAKVQWKVDNALQSGNSEESVTEQDSKDSTYSLSSTLTLSKADYEKHKVYACEVTHQGLSSPVTKSFNRGEC
heavy 2: QVQLVESGGGVVQPGRSLRLSCAASGFTFSEWYFMSWVRQAPGKGLEWVASIDTGSGSIDYAGWVEERFTISRDNSKNTLYLQMNSLRAEDTAVYYCARDIGIDYNFWGPGTLVTVSSASTKGPSVFPLAPSSKSTSGGTAALGCLVEDYFPEPVTVSWNSGALTSGVHTFPAVLESSGLYSLSSVVTVPSSSLGTKTYICNVNHKPSNTKVDKRVEPKSCDKTHTCPPCPAPELRRGPSVFLFPPKPKDTLMISRTPEVTCVVVDVSHEDPEVKFNWYVDGVEVHNAKTKPREEQYNSTYRVVSVLTVLHQDWLNGKEYKCKVSNKALPAPIEKTISKAKGQPREPQVYTLPPSRKEMTKNQVSLTCLVKGFYPSDIAVEWESNGQPENNYKTTPPVLDSDGSFFLYSKLTVDKSRWQQGNVFSCSVLHEALHAHYTRKELSLSP
light 2: DIQMTQSPSSLSASVGDRVTITCQTTQSISSYLNWYQQKPGQPPKLLIYYASTKAEGIPARFSGSGSGTDFTLTISSLEPEDFAVYYCHYGISKVSFGQGTKVEIKRTVAAPSVFIFPPSDEQLKSGTAKVVCLLNNFYPREAKVQWKVDNALQSGNSKESVTEQDSKDSTYSLSSTLTLSKADYEKHKVYACEVTHQGLSSPVTKSFNRGEC
B2: DQN0344H0976/L0591//DQN0385H1270/L0681-F6 (bispecific antibody)
heavy 1: B1 heavy 1 with V403Y
light 1: B1 light 1
heavy 2: B1 heavy 2 with G63E, E67G, V398Y
light 2: B1 light 2 with S67L
B3: DQN0344H1013/L0620//DQN0385H1270/L0681-F6 (bispecific antibody)
heavy 1: B1 heavy 1 with G16R, L112V, V403Y
light 1: B1 light 1 with E28N, Y55A, E56Y
heavy 2: B1 heavy 2 with G63E, E67G, V398Y
light 2: B1 light 2 with S67L
B4: DQN0344H0976/L0591//DQN0385H1255/L0605-F6 (bispecific antibody)
heavy 1: B1 heavy 1 with V403Y
light 1: B1 light 1
heavy 2: B1 heavy 2 with V398Y
light 2: B1 light 2
B5: DQN0344H0976/L0591//DQN0385H1352/L0681-F6 (bispecific antibody)
heavy 1: B1 heavy 1 with V403Y
light 1: B1 light 1
heavy 2: B1 heavy 2 with T28E, G63E, E67G, V398Y
light 2: B1 light 2 with S67L
B6: DQN0344H0976/L0591//DQN0385H1527/L0605-F6 (bispecific antibody)
heavy 1: B1 heavy 1 with V403Y
light 1: B1 light 1
heavy 2: B1 heavy 2 with S30A, E31S, G63E, E67G, V398Y
light 2: B1 light 2
B7: DQN0344H1013/L0620//DQN0385H1353/L0681-F6 (bispecific antibody)
heavy 1: B1 heavy 1 with G16R, L112V, V403Y
light 1: B1 light 1 with E28N, Y55A, E56Y
heavy 2: B1 heavy 2 with S30A, G63E, E67G, V398Y
light 2: B1 light 2 with S67L
B8: DQN0344H0976/L0591//DQN0385H1270/L0722-F6 (bispecific antibody)
heavy 1: B1 heavy 1 with V403Y
light 1: B1 light 1
heavy 2: B1 heavy 2 with G63E, E67G, V398Y
light 2: B1 light 2 with S67L, E79Q

molecular target: HLA-DQ2.2 on HBBB2.2 cells loaded with 33mer gliadin peptide (human; wheat); experiment: cell-based or functional assay

B1 was tested, and the “IC50 (ng/ml)_HLA-DQ2.2, α1a gliadin TCR, 25 µM 33mer gliadin” value was 1.72 ng/mL.

In the case of B1, the “IC50 (ng/ml)_HLA-DQ2.2, α2 gliadin TCR, 1 µM 33mer gliadin” value is reported as 9.48 ng/mL.

molecular target: T1, HLA-DQ2.5 on IHW09023 cells loaded with gamma 1 gliadin peptide (human; wheat); experiment: cell-based or functional assay

B1 was tested, and the “IC50 (ng/mL), γ1 gliadin TCR, 250 nM γ1 gliadin” value was 1.62 ng/mL.

molecular target: T2, HLA-DQ2.5 on IHW09023 cells loaded with omega1/2 gliadin peptide (human; wheat); experiment: cell-based or functional assay

For B1, the “IC50 (ng/mL), ω1 gliadin TCR, 25 µM ω1/2 gliadin” value was 1.62 ng/mL.

B1 was tested, and the “IC50 (ng/mL), ω2 gliadin TCR, 250 nM ω1/2 gliadin” value was 0.18 ng/mL.

molecular target: T3, HLA-DQ2.5 on IHW09023 cells loaded with gamma 2 gliadin peptide (human; wheat); experiment: cell-based or functional assay

With B1 the “IC50 (ng/mL), γ2 gliadin TCR, 250 nM γ2 gliadin” value was 252 ng/mL.

molecular target: T4, HLA-DQ2.5 on IHW09023 cells loaded with gamma 3 gliadin peptide (human; wheat); experiment: cell-based or functional assay

With B1 the “IC50 (ng/mL), γ3 gliadin TCR, 100 µM γ3 gliadin” value was 1.55 ng/mL.

molecular target: T5, HLA-DQ2.5 on IHW09023 cells loaded with gamma 4d gliadin peptide (human; wheat); experiment: cell-based or functional assay

With B1 the “IC50 (ng/mL), γ4d gliadin TCR, 100 µM γ4d gliadin” value was 8.69 ng/mL.

molecular target: T6, HLA-DQ2.5 on IHW09023 cells loaded with gamma 4a gliadin peptide (human; wheat); experiment: cell-based or functional assay

For B1, the “IC50 (ng/mL), γ4a gliadin TCR, 25 µM γ4a gliadin” value was 636 ng/mL.

molecular target: T7, HLA-DQ2.5 on IHW09023 cells loaded with BC hordein peptide (human; barley); experiment: cell-based or functional assay

With B1 the “IC50 (ng/mL), BC hordein TCR, 250 nM BC hordein” value was 9.52 ng/mL.

molecular target: T8, HLA-DQ2.5 on IHW09023 cells loaded with 33mer gliadin peptide (human; wheat); experiment: cell-based or functional assay

In the case of B1, the “IC50 (ng/mL), α1a gliadin TCR, 250 nM 33mer gliadin” value is reported as 0.46 ng/mL.

For B1, the “IC50 (ng/mL), α1b gliadin TCR, 250 nM 33mer gliadin” value was 1.33 ng/mL.

B1 was tested, and the “IC50 (ng/mL), α2 gliadin TCR, 250 nM 33mer gliadin” value was 0.29 ng/mL.

molecular target: T1, HLA-DQ2.5 on IHW09023 cells loaded with …; experiment: cell-based or functional assay; remark: another data set of the same source

Point of comparison: B3, “IC50 (ng/mL), γ1 gliadin TCR, 250 nM γ1 gliadin” value 1.11 ng/mL. Against it:
- B2 — within 1.5-fold, 1.05 ng/mL
- B4 — within 1.5-fold, 0.91 ng/mL
- B5 — the same, 1.11 ng/mL
- B6 — 1.9-fold lower, 0.59 ng/mL
- B7 — 2-fold lower, 0.56 ng/mL
- B8 — 1.7-fold lower, 0.66 ng/mL

molecular target: T2, HLA-DQ2.5 on IHW09023 cells loaded with …; experiment: cell-based or functional assay; remark: another data set of the same source

Point of comparison: B4, “IC50 (ng/mL), ω1 gliadin TCR, 25 µM ω1/2 gliadin” value 2.62 ng/mL. Against it:
- B2 — within 1.5-fold, 2.07 ng/mL
- B3 — within 1.5-fold, 2.51 ng/mL
- B5 — 1.8-fold lower, 1.48 ng/mL
- B6 — within 1.5-fold, 3.25 ng/mL
- B7 — 2.2-fold lower, 1.17 ng/mL
- B8 — within 1.5-fold, 2.55 ng/mL

Point of comparison: B2, “IC50 (ng/mL), ω2 gliadin TCR, 250 nM ω1/2 gliadin” value 0.26 ng/mL. Against it:
- B3 — within 1.5-fold, 0.2 ng/mL
- B4 — within 1.5-fold, 0.25 ng/mL
- B5 — within 1.5-fold, 0.24 ng/mL
- B6 — within 1.5-fold, 0.3 ng/mL
- B7 — 1.5-fold lower, 0.17 ng/mL
- B8 — the same, 0.26 ng/mL

molecular target: T3, HLA-DQ2.5 on IHW09023 cells loaded with …; experiment: cell-based or functional assay; remark: another data set of the same source

Point of comparison: B7, “IC50 (ng/mL), γ2 gliadin TCR, 250 nM γ2 gliadin” value 100 ng/mL. Against it:
- B2 — 1.8-fold higher, 182 ng/mL
- B3 — 3.2-fold higher, 322 ng/mL
- B4 — 4.4-fold higher, 440 ng/mL
- B5 — 2.8-fold higher, 284 ng/mL
- B6 — 6.4-fold higher, 637 ng/mL
- B8 — 2.8-fold higher, 281 ng/mL

molecular target: T4, HLA-DQ2.5 on IHW09023 cells loaded with …; experiment: cell-based or functional assay; remark: another data set of the same source

Point of comparison: B7, “IC50 (ng/mL), γ3 gliadin TCR, 100 µM γ3 gliadin” value 2.29 ng/mL. Against it:
- B2 — within 1.5-fold, 2.4 ng/mL
- B3 — within 1.5-fold, 2.63 ng/mL
- B4 — within 1.5-fold, 2.31 ng/mL
- B5 — within 1.5-fold, 2.99 ng/mL
- B6 — within 1.5-fold, 2.09 ng/mL
- B8 — within 1.5-fold, 2.88 ng/mL

molecular target: T5, HLA-DQ2.5 on IHW09023 cells loaded with …; experiment: cell-based or functional assay; remark: another data set of the same source

Point of comparison: B5, “IC50 (ng/mL), γ4d gliadin TCR, 100 µM γ4d gliadin” value 9.82 ng/mL. Against it:
- B2 — within 1.5-fold, 11.8 ng/mL
- B3 — within 1.5-fold, 13.1 ng/mL
- B4 — within 1.5-fold, 12.4 ng/mL
- B6 — within 1.5-fold, 11.4 ng/mL
- B7 — 4.8-fold lower, 2.06 ng/mL
- B8 — 1.7-fold higher, 16.3 ng/mL

molecular target: T6, HLA-DQ2.5 on IHW09023 cells loaded with …; experiment: cell-based or functional assay; remark: another data set of the same source

Point of comparison: B4, “IC50 (ng/mL), γ4a gliadin TCR, 25 µM γ4a gliadin” value 1430 ng/mL. Against it:
- B2 — 1.9-fold lower, 749 ng/mL
- B3 — within 1.5-fold, 1160 ng/mL
- B5 — 1.8-fold lower, 802 ng/mL
- B6 — within 1.5-fold, 1210 ng/mL
- B7 — within 1.5-fold, 1250 ng/mL
- B8 — 2-fold lower, 726 ng/mL

molecular target: T7, HLA-DQ2.5 on IHW09023 cells loaded with …; experiment: cell-based or functional assay; remark: another data set of the same source

Point of comparison: B8, “IC50 (ng/mL), BC hordein TCR, 250 nM BC hordein” value 13.2 ng/mL. Against it:
- B2 — within 1.5-fold, 12 ng/mL
- B3 — 1.8-fold lower, 7.54 ng/mL
- B4 — within 1.5-fold, 13.6 ng/mL
- B5 — within 1.5-fold, 10.8 ng/mL
- B6 — 2-fold lower, 6.54 ng/mL
- B7 — 1.5-fold lower, 8.78 ng/mL

molecular target: T8, HLA-DQ2.5 on IHW09023 cells loaded with …; experiment: cell-based or functional assay; remark: another data set of the same source

Point of comparison: B5, “IC50 (ng/mL), α1b gliadin TCR, 250 nM 33mer gliadin” value 1.37 ng/mL. Against it:
- B2 — within 1.5-fold, 1.36 ng/mL
- B3 — within 1.5-fold, 1.78 ng/mL
- B4 — 1.9-fold higher, 2.66 ng/mL
- B6 — within 1.5-fold, 1.84 ng/mL
- B7 — within 1.5-fold, 1.13 ng/mL
- B8 — within 1.5-fold, 1.41 ng/mL

Point of comparison: B2, “IC50 (ng/mL), α2 gliadin TCR, 250 nM 33mer gliadin” value 0.34 ng/mL. Against it:
- B3 — within 1.5-fold, 0.33 ng/mL
- B4 — 1.6-fold higher, 0.56 ng/mL
- B5 — within 1.5-fold, 0.31 ng/mL
- B6 — 1.5-fold higher, 0.51 ng/mL
- B7 — the same, 0.34 ng/mL
- B8 — within 1.5-fold, 0.31 ng/mL

Point of comparison: B7, “IC50 (ng/mL), α1a gliadin TCR, 250 nM 33mer gliadin” value 0.29 ng/mL. Against it:
- B3 — within 1.5-fold, 0.38 ng/mL
- B4 — 1.7-fold higher, 0.49 ng/mL
- B5 — the same, 0.29 ng/mL
- B6 — 2.4-fold higher, 0.7 ng/mL
- B8 — within 1.5-fold, 0.38 ng/mL

Molecular target: T9, HLA-DQ6.3 on Ba/F3 cells (human, UniProt P01920 33-230, limits assumed)
T9 construct: whole, on cells; also called Ba/F3-HLA-DQ6.3
T9 MHC II alpha: not shown
T9 MHC II beta: not shown
Experiment: FACS, Ba/F3 cells; raw MFI

B7: no binding (tested: 0.05 micro g/mL).

Molecular target: T10, HLA-DQ5.1 on Ba/F3 cells (human, limits assumed)
T10 construct: whole, on cells; also called Ba/F3-HLA-DQ5.1
T10 MHC II alpha: not shown
T10 MHC II beta: not shown
Experiment: FACS, Ba/F3 cells; raw MFI

B7: no binding (tested: 0.05 micro g/mL).

molecular target: T11, HLA-DP on Ba/F3 cells (human, UniProt P20036 29-222; P04440 30-225, limits assumed); experiment: FACS, Ba/F3 cells; raw MFI
T11 construct: whole, on cells; also called Ba/F3-HLA-DP
T11 sequence (P20036 29-222 limits assumed, chain 1 of 4, other chains not shown): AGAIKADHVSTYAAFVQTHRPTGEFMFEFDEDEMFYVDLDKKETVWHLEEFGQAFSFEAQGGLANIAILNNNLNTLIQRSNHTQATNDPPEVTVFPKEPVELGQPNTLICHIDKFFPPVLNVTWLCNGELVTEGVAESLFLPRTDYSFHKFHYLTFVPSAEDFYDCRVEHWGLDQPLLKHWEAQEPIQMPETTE
T11 sequence (P04440 30-225 limits assumed, chain 2 of 4, other chains not shown): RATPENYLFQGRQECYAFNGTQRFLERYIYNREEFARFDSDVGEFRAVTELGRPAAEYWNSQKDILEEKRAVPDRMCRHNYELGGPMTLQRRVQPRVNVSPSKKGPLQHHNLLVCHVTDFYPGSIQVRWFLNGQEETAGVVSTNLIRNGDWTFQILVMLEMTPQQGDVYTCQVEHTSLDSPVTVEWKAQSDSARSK

B7: no binding (tested: 0.05 micro g/mL).
